Experimental data: the supplement of paper PMC10126150
± gives the standard deviation of the averaged measurements.
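Further: ATP exposure 15 min at 22 °C before imaging.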

Each sequence was assayed on ATP (assay: switch fluorescence ratio, 500 uM ATP over buffer (Cy3 cluster intensity, sum of 5 cycles each) (fold (ratio)); higher = stronger signal-on switching upon ATP binding; sequences stand for … in TCGTCGGCAGCGTCAGATGTGTATAAGAGACAGTTTTTTTTTTTTTTTTTTTTTTTTT…TC). Settings: aptamer strand: ATP DNA aptamer (quencher-CACCTGGGGGAGTATTGCGGAGGAAGG + anchor), 100 nM annealed; ATP concentration: 500 uM.
Summary of the method: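 The fluorescence ratio divides summed target-cycle Cy3 intensity by summed buffer-cycle Cy3 intensity for each cluster and is averaged per switch-domain sequence. Cy3-labelled switching-strand clusters on a modified Illumina MiSeq flow-cell were annealed to 100 nM quencher-labelled ATP aptamer, then imaged in selection buffer and again after 15 min with 500 uM ATP at 22 °C. Five such cycles were run, with NaOH stripping and re-annealing between them, and clusters outside 100-1000 RFU were excluded.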
TCAATAGAGT gave a switch fluorescence ratio of 1.039 ± 0.0024.
In the case of AACCGGGGAC, the switch fluorescence ratio is reported as 1.31 ± 0.23.
Sequence GGGAATGGTC has a switch fluorescence ratio of 1.01 ± 0.043.
TCATGGGGTC was tested, and the switch fluorescence ratio was 0.975 ± 0.022.
In the case of TAATTTGAAC, the switch fluorescence ratio is reported as 1.02 ± 0.043.
TGGGGATCAC was tested, and the switch fluorescence ratio was 1.01 ± 0.071.
With TTTTGAGAGA the switch fluorescence ratio was 1.11 ± 0.25.
AGTTTATTGG gave a switch fluorescence ratio of 0.999 ± 0.0086.
GAGTTACATG showed a switch fluorescence ratio of 1.02 ± 0.048.
Work on AGGGTTGAAG yielded a switch fluorescence ratio of 0.989 ± 0.035.
With AGATGGGGG the switch fluorescence ratio was 0.948 ± 0.066.
For TATGGTTTAC, the switch fluorescence ratio was 1 ± 0.017.
AACGTAGATA gave a switch fluorescence ratio of 1.042 ± 0.0098.
TTTGTTCCAG gave a switch fluorescence ratio of 1.01 ± 0.06.
For AACAGAGGGG, the switch fluorescence ratio was 1.01 ± 0.018.
For GTTGGGGCGA, the switch fluorescence ratio was 1.02 ± 0.076.
CGTTTAGATA gave a switch fluorescence ratio of 1 ± 0.042.
GAGTTGAGTT showed a switch fluorescence ratio of 1.01 ± 0.074.
In the case of CCTTTGGCAG, the switch fluorescence ratio is reported as 1.22 ± 0.06.
For AATTCGTATC, the switch fluorescence ratio was 1.008 ± 0.0024.
In the case of CCAGTACCTT, the switch fluorescence ratio is reported as 1.09 ± 0.03.
ACTTGATTGT showed a switch fluorescence ratio of 1.02 ± 0.094.
In the case of TGAGTTTGGT, the switch fluorescence ratio is reported as 0.97 ± 0.018.
With ATTCCCAATT the switch fluorescence ratio was 1.04 ± 0.025.
In the case of TGCGAGAAGG, the switch fluorescence ratio is reported as 0.999 ± 0.011.
ATAAGTTCCG gave a switch fluorescence ratio of 0.996 ± 0.028.
CCAAGGTTCG gave a switch fluorescence ratio of 0.945 ± 0.053.
TGATCGTGAG gave a switch fluorescence ratio of 1.02 ± 0.017.
AGGGTTGTTA gave a switch fluorescence ratio of 0.982 ± 0.027.
GAGGATGGGA was tested, and the switch fluorescence ratio was 0.98 ± 0.022.
TTAAATATTT was tested, and the switch fluorescence ratio was 0.992 ± 0.022.
AGTATATCTT gave a switch fluorescence ratio of 0.98 ± 0.012.
CTGAAAGGGA showed a switch fluorescence ratio of 1.01 ± 0.02.
For AGGGAGATTT, the switch fluorescence ratio was 0.99 ± 0.03.
In the case of TCAGCGTACG, the switch fluorescence ratio is reported as 1.01 ± 0.014.
In the case of GCTGAAAGGG, the switch fluorescence ratio is reported as 0.9903 ± 0.0067.
AGGTTAATTG was tested, and the switch fluorescence ratio was 0.9909 ± 0.0072.
Sequence CAGTAGGGGG has a switch fluorescence ratio of 0.977 ± 0.068.
In the case of AACCGGCTTA, the switch fluorescence ratio is reported as 0.999 ± 0.026.
Sequence TTTCAGTTGT has a switch fluorescence ratio of 1.01 ± 0.016.
Work on TGGGGGTTGA yielded a switch fluorescence ratio of 1.01 ± 0.028.
Sequence CTGTATTCTG has a switch fluorescence ratio of 0.962 ± 0.015.
Sequence AGAGGGTTGC has a switch fluorescence ratio of 0.978 ± 0.029.
TTGTGAACTT gave a switch fluorescence ratio of 0.9794 ± 0.0046.
For AACTTTATCC, the switch fluorescence ratio was 1.09 ± 0.042.
Sequence GATGCTGGCG has a switch fluorescence ratio of 1.01 ± 0.052.
ATTATGTACT showed a switch fluorescence ratio of 1.05 ± 0.022.
CCGCATTGGG gave a switch fluorescence ratio of 3.35 ± 0.93.
Work on AATGCTGTTG yielded a switch fluorescence ratio of 0.991 ± 0.02.
With GGGGATCTTA the switch fluorescence ratio was 1 ± 0.031.
TGGAAGGGGA was tested, and the switch fluorescence ratio was 1 ± 0.013.
AAATTCCGTG gave a switch fluorescence ratio of 0.978 ± 0.043.
GTGGGAGCTG showed a switch fluorescence ratio of 0.99 ± 0.0079.
CGAGGTAGGG showed a switch fluorescence ratio of 1.01 ± 0.073.
CCTGGGGAGT showed a switch fluorescence ratio of 1.04 ± 0.034.
ATTGGTCAGC gave a switch fluorescence ratio of 0.982 ± 0.035.
Work on GGTTGTCATG yielded a switch fluorescence ratio of 0.967 ± 0.032.
In the case of CATATGGGCG, the switch fluorescence ratio is reported as 1.03 ± 0.064.
With TTAAAGAGCG the switch fluorescence ratio was 0.989 ± 0.04.
ATGGGTGTCC was tested, and the switch fluorescence ratio was 1.004 ± 0.0056.
With GGCATACCGG the switch fluorescence ratio was 0.936 ± 0.019.
GGGGCACGCT was tested, and the switch fluorescence ratio was 0.999 ± 0.03.
Work on TGAGGGGGCG yielded a switch fluorescence ratio of 1.03 ± 0.11.
With AAAGCATAAC the switch fluorescence ratio was 1.91 ± 0.14.
With CGGCGATGGG the switch fluorescence ratio was 1.11 ± 0.069.
Work on ATGTAAAGGT yielded a switch fluorescence ratio of 1.04 ± 0.058.
With TTATATGTGT the switch fluorescence ratio was 1.01 ± 0.039.
In the case of TCTGAAAACT, the switch fluorescence ratio is reported as 1.06 ± 0.0013.
Work on AGAGCTTGAT yielded a switch fluorescence ratio of 1 ± 0.036.
For GTCGTAATTG, the switch fluorescence ratio was 1.02 ± 0.016.
In the case of TGTTGGGTGT, the switch fluorescence ratio is reported as 1.01 ± 0.031.
With GGTCCTAGAA the switch fluorescence ratio was 0.9724 ± 0.0011.
Sequence GCGACGTGAC has a switch fluorescence ratio of 3.17 ± 0.24.
For ATGAATAATG, the switch fluorescence ratio was 1.01 ± 0.026.
TGTGGTGAGT gave a switch fluorescence ratio of 0.963 ± 0.012.
GTTACACGGT gave a switch fluorescence ratio of 1.01 ± 0.021.
With GATAAACGAT the switch fluorescence ratio was 1.02 ± 0.031.
Sequence TGGTATAGTA has a switch fluorescence ratio of 0.993 ± 0.019.
ATGCGATTTG gave a switch fluorescence ratio of 1 ± 0.057.
In the case of AAAGAGTTTT, the switch fluorescence ratio is reported as 1.02 ± 0.071.
CAATTGGGGA was tested, and the switch fluorescence ratio was 0.995 ± 0.029.
CGTGTGGCCA was tested, and the switch fluorescence ratio was 1 ± 0.016.
Sequence GAAGCGACTC has a switch fluorescence ratio of 2.42 ± 0.03.
Sequence CAAAGTGAAC has a switch fluorescence ratio of 1.01 ± 0.017.
ATAGAACTTT gave a switch fluorescence ratio of 0.9968 ± 0.0095.
AAGCTAGTAA showed a switch fluorescence ratio of 0.865 ± 0.012.
For TAATAATTCT, the switch fluorescence ratio was 0.99 ± 0.019.
TACTTTAGGG gave a switch fluorescence ratio of 1.04 ± 0.024.
Sequence TACGGGGG has a switch fluorescence ratio of 1.01 ± 0.071.
For ATTAAGGATT, the switch fluorescence ratio was 1.01 ± 0.016.
Sequence TAAGAGTGCA has a switch fluorescence ratio of 0.973 ± 0.027.
AGACGATGAG gave a switch fluorescence ratio of 0.933 ± 0.026.
GTTGTGCCTG gave a switch fluorescence ratio of 1.01 ± 0.041.
GCAGCAGATG was tested, and the switch fluorescence ratio was 1.077 ± 0.0072.
With GCTTGTATGA the switch fluorescence ratio was 1.013 ± 0.0032.
In the case of TTTTTCAACT, the switch fluorescence ratio is reported as 1.03 ± 0.036.
CTGTACAAGC gave a switch fluorescence ratio of 1.15 ± 0.03.
In the case of GGAGTAAAGA, the switch fluorescence ratio is reported as 0.992 ± 0.037.
AATGGTGCGA showed a switch fluorescence ratio of 0.975 ± 0.012.
AGCTGATGTG showed a switch fluorescence ratio of 1.008 ± 0.0051.
TCGTGGGACT was tested, and the switch fluorescence ratio was 1.07 ± 0.12.
TTGTATGAGT showed a switch fluorescence ratio of 0.986 ± 0.025.
For GAAAGAAAAA, the switch fluorescence ratio was 1.09 ± 0.043.
GATTCACGTT was tested, and the switch fluorescence ratio was 1.052 ± 0.0043.
TTAGGTGAGG was tested, and the switch fluorescence ratio was 0.993 ± 0.026.
Sequence AATTTTCCAC has a switch fluorescence ratio of 1.02 ± 0.043.
Sequence TTTGATCAGA has a switch fluorescence ratio of 1 ± 0.025.
In the case of TTCGGTAGTG, the switch fluorescence ratio is reported as 0.9923 ± 0.0083.
GCAGGCCACA gave a switch fluorescence ratio of 1.11 ± 0.065.
ATTTCAGTGT gave a switch fluorescence ratio of 1.009 ± 0.0044.
GAGCAATATA was tested, and the switch fluorescence ratio was 5.13 ± 1.7.
In the case of CGTTTATTTT, the switch fluorescence ratio is reported as 1.01 ± 0.03.
TGATGTTAAA gave a switch fluorescence ratio of 0.998 ± 0.01.
Sequence ACGATCAGCA has a switch fluorescence ratio of 1.05 ± 0.047.
Work on TTAGAGACAG yielded a switch fluorescence ratio of 0.985 ± 0.049.
Work on AATCGGGTAT yielded a switch fluorescence ratio of 0.984 ± 0.027.
With CGTAAGGGTT the switch fluorescence ratio was 1.008 ± 0.0063.
Sequence TGCGCTACGG has a switch fluorescence ratio of 1.08 ± 0.039.
CAGAGATCAT gave a switch fluorescence ratio of 0.993 ± 0.019.
Work on ATAAAAAATA yielded a switch fluorescence ratio of 1 ± 0.025.
AAATCAAACG gave a switch fluorescence ratio of 1.05 ± 0.018.
In the case of CTCGTGTGTG, the switch fluorescence ratio is reported as 1.044 ± 0.0073.
For AGGGCTAGTA, the switch fluorescence ratio was 1 ± 0.034.
TCTCATAGTA was tested, and the switch fluorescence ratio was 0.997 ± 0.047.
AAGCCTAATG was tested, and the switch fluorescence ratio was 0.996 ± 0.017.
GCAGGTATCA gave a switch fluorescence ratio of 1.018 ± 0.007.
With GCGGTGGGTT the switch fluorescence ratio was 0.9862 ± 0.0096.
For ACTATTATCT, the switch fluorescence ratio was 1.023 ± 0.0099.
Sequence AATATTTAGT has a switch fluorescence ratio of 1 ± 0.024.
AGGACGGTAG was tested, and the switch fluorescence ratio was 0.992 ± 0.058.
In the case of GTAATCGGCA, the switch fluorescence ratio is reported as 1.02 ± 0.022.
Sequence TATGGCGGTC has a switch fluorescence ratio of 0.92422 ± 0.00078.
AGGAGTGGGG gave a switch fluorescence ratio of 1 ± 0.022.
For AATGAAGGCA, the switch fluorescence ratio was 1.005 ± 0.0049.
CGTGTCGTGC showed a switch fluorescence ratio of 0.971 ± 0.062.
ACTAAAGTGC gave a switch fluorescence ratio of 1.01 ± 0.03.
With TAATTCGTTA the switch fluorescence ratio was 0.992 ± 0.037.
In the case of GGTTCGACTG, the switch fluorescence ratio is reported as 0.951 ± 0.046.
Work on CGTGGTGGCT yielded a switch fluorescence ratio of 0.989 ± 0.12.
With TAGGATAGAC the switch fluorescence ratio was 1 ± 0.017.
Work on AGGATGTGAC yielded a switch fluorescence ratio of 1.01 ± 0.02.
Sequence TAGGCTTTTG has a switch fluorescence ratio of 1.03 ± 0.056.
TACGTTGCAA gave a switch fluorescence ratio of 1.22 ± 0.015.
Sequence AGACCTAAAG has a switch fluorescence ratio of 1.05 ± 0.069.
TTTTGTTATG showed a switch fluorescence ratio of 0.9903 ± 0.0085.
Sequence GTTAATTGGG has a switch fluorescence ratio of 0.953 ± 0.037.
TTGTCCGAGC gave a switch fluorescence ratio of 1.06 ± 0.023.
For TTTCGATTGT, the switch fluorescence ratio was 0.988 ± 0.024.
Work on TTCATCGTCT yielded a switch fluorescence ratio of 1.01 ± 0.042.
For TTCAAGTGAA, the switch fluorescence ratio was 0.979 ± 0.012.
With ATAAACAAAG the switch fluorescence ratio was 0.959 ± 0.015.
In the case of AACAGGGTTT, the switch fluorescence ratio is reported as 1.01 ± 0.075.
In the case of CATGTGTGGG, the switch fluorescence ratio is reported as 1.01 ± 0.029.
